What is called EC50 is the midpoint of the concentration-response curve. Read a high EC50 as weaker potency.

This note sets out measurements from US20060008846A1 (RESEARCH DEVELOPMENT FOUNDATION, published 2006).

Assay [1] has as its target T1, mouse ActRII transfected into 293T cells (mouse, UniProt P27038 20-513).
T1 construct: whole, on cells
In words: ActRII binding, 293T cells transfected with mouse ActRII. The protocol:
After the incubation cells were washed three times with HDB buffer and lysed with 1% SDS solution. Radioactivity in the lysate was determined using a gamma counter.
Therefore, the inventors contemplate engineering a series of activin-A chimeras, such as activin-A/C chimeras, preferably having a peptide tag such a FLAG tag, in each of […] in the wrist loop and helix (such as A/C 46-53, 54-63, 64-69, 70-78) are replaced. Additionally, a chimera was generated in which the entire wrist region (A/C 46-78) was changed from activin-A to activin-C or some other analogous TGF-β member. In one example, the chimeras were assessed for ActRII binding, activin bioactivity as well as antagonistic properties. […] Maximum activity of A/C 64-69 and 70-78, however, was reduced down to about 20-50% and 60-90%, respectively, when compared to wt activin. […] Additionally, A/C 46-78 decreased the basal and activin induced FSH release from cultured rat anterior pituitary cells in a concentration dependent manner. […] The activin antagonist A/C 46-78 may be useful for the study and modulation of activin dependent processes.

Assay [2] concerns the target ActRII (type II activin receptor) transfected into 293T cells (UniProt P27038). In words: cell-based or functional assay.
The target of assay [3] is T2, ActRII and ALK4 co-transfected into 293T cells (UniProt P27038 20-513; P36896 24-505).
T2 construct: whole, on cells; Both receptors on the same cells; also called cells transfected with ActRII and ALK4; receptor complex
T2 sequence (P27038 20-513, one chain of several): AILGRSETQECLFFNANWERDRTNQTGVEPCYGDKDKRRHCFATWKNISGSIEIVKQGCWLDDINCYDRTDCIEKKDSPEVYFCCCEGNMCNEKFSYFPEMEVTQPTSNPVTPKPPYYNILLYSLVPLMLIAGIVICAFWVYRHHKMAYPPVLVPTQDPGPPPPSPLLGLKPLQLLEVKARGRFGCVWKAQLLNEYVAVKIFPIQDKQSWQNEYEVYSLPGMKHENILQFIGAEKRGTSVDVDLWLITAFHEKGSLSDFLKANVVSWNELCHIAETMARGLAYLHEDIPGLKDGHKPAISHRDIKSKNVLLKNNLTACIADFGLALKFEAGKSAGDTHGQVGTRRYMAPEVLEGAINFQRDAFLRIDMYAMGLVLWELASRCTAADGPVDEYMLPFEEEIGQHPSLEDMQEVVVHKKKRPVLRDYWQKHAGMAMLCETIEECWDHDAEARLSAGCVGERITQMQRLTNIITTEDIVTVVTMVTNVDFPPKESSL
In words: competition binding, 125I-activin on 293T cells transfected with ActRII and ALK4.

Assay [4] concerns the target activin receptors of non-transfected 293T cells. Put plainly: competition binding, 125I-activin on non-transfected 293T cells.
Assay [5] concerns the target T3, ALK4 (activin type I receptor) (UniProt P36896 24-505, limits assumed).
T3 sequence (looked up): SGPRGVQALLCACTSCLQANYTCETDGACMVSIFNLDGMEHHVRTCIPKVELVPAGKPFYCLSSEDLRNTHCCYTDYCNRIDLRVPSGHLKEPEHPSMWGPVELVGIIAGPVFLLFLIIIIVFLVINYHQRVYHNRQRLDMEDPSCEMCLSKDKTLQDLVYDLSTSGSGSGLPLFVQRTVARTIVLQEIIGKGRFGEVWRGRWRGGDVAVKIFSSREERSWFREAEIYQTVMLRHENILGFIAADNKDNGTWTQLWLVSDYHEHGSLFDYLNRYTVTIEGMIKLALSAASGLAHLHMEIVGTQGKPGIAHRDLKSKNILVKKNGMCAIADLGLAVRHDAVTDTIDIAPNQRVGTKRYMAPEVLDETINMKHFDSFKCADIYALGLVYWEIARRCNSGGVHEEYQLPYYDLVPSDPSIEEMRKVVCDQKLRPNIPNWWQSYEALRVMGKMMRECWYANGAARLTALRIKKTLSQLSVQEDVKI
Put plainly: cell-based or functional assay.

The target of assay [6] is T3, ALK4 (activin type I receptor). Put plainly: cell-based or functional assay. This is another data set of the same source.
Assay [7] deals with type II activin receptors in 293T cells. Put plainly: cell-based or functional assay.
Assay [8] concerns the target T3, ALK4 (activin type I receptor). Put plainly: DSS crosslinking of 125I-M108A to 293T cells transfected with ActRII-myc and ALK4, immunoprecipitation, SDS-PAGE, autoradiography. The protocol:
Cells were incubated with labeled activin or labeled M108A as indicated, subjected to covalent crosslinking with dissucinylsuberate (DSS), solubilized in lysis buffer, immunoprecipitated using an antibody against myc or ALK4 and then immunoprecipitated proteins were resolved by SDS-PAGE and visualized by autoradiography.
Approximately 24 h later, cells were transfected with 2 μg DNA per well with the indicated constructs (the ratio of ActRII:ALK4 was 2:1 and total DNA was kept constant using pcDNA3.0). […] Cells were washed in HDB, resuspended at 0.5 mM disuccinylsuberate (DSS) in HDB and incubated 30 min on ice. Crosslinking reactions were quenched with TBS (50 mM Tris-HCl pH 7.5, 150 mM NaCl) and cells were solubilized in lysis buffer (TBS containing 1% NP-40, 0.5% deoxycholate and 2 mM EDTA) and subjected to immunopreciptation using anti-myc or anti-ALK4 antibodies as indicated. Immune complexes were analyzed by SDS-PAGE and autoradiography.

T1 sequence (P27038 20-513): as the sequence (P27038 20-513, one chain of several) above
Chain of ActRII (type II activin receptor) transfected into 293T cells (P27038 20-513): as the sequence (P27038 20-513, one chain of several) above

B1: activin-A/C chimera A/C 46-78 (ligand, UniProt P08476 311-355, looked up)
chain: GLECDGKVNICCKKQFFVSFKDIGWNDWIIAPSGYHANYCEGECPLHIAGMPGIAASFHTAVLNLLKANTAAGTTGGGSCCVPTKLRPMSMLYYDDGQNIIKKDIQNMIVEECGCS
notes: range 1-45 of the mature chain;range 46-78 of the mature chain;range 79 to C-terminus of the mature chain; also called A/C 46-78 chimera
For B1, the binding result in assay [1] is reported as “binds”.

B2: activin-A K102E (ligand, human, UniProt P08476 311-426, looked up)
chain: GLECDGKVNICCKKQFFVSFKDIGWNDWIIAPSGYHANYCEGECPSHIAGTSGSSLSFHSTVINHYRMRGHSPFANLKSCCVPTKLRPMSMLYYDDGQNIIEKDIQNMIVEECGCS
Molecule B2 yielded a % Activin Activity (A3-luciferase assay in 293T cells) (% of wild type activin-A) in assay [2] of 18.

B3: wild type activin-A (ligand, human, UniProt P08476 311-426, looked up)
chain: GLECDGKVNICCKKQFFVSFKDIGWNDWIIAPSGYHANYCEGECPSHIAGTSGSSLSFHSTVINHYRMRGHSPFANLKSCCVPTKLRPMSMLYYDDGQNIIKKDIQNMIVEECGCS
notes: mature; As tracer it was radioiodinated by the chloramine T method; also called WT activin-A; wt activin-A
As to B3, the “fold higher affinity than in cells transfected with ActRII alone” value in assay [3] was found to be 2 fold. Moreover, in assay [4], the apparent affinity was in the range of 60 to 80 pM and the fold higher affinity than in cells transfected with ActRII alone stood at 2 fold. In addition, the “EC50 of activity in the A3 Lux reporter assay in 293T cells” value in assay [5] is 200 pM. This molecule also had an EC50 in assay [1] of 150 pM. In addition, the “% Activin Activity (A3-luciferase assay in 293T cells)” value in assay [6] was 100 % of wild type activin-A.

B4: activin-A (M108A), P08476 311-426 (ligand, human, UniProt P08476 311-426, looked up)
chain: GLECDGKVNICCKKQFFVSFKDIGWNDWIIAPSGYHANYCEGECPSHIAGTSGSSLSFHSTVINHYRMRGHSPFANLKSCCVPTKLRPMSMLYYDDGQNIIKKDIQNAIVEECGCS
In assay [7], B4 returned an activin-A (100 pM) induced luciferase response in 293T cells with increasing amounts of M108A (fold induction) of 23 and a myostatin (500 pM) induced luciferase response in 293T cells with increasing doses of M108A (fold induction) of 26.

B5: activin-A I105E (ligand, human, UniProt P08476 311-426, looked up)
chain: GLECDGKVNICCKKQFFVSFKDIGWNDWIIAPSGYHANYCEGECPSHIAGTSGSSLSFHSTVINHYRMRGHSPFANLKSCCVPTKLRPMSMLYYDDGQNIIKKDEQNMIVEECGCS
In the case of B5, the “% Activin Activity (A3-luciferase assay in 293T cells)” value in assay [6] was 13 % of wild type activin-A.

B6: A/C-2 chimeric activin A/activin C protein (ligand, human, UniProt P08476 311-426, looked up)
chain: GLECDGKVNICCKKQFFVSFKDIGWNDWIIAPSGYHANYCEGECPSHIAGTSGSSLSFHTAVLNLLKANTAAPFANLKSCCVPTKLRPMSMLYYDDGQNIIKKDIQNMIVEECGCS
For the molecule B6, the “% Activin Activity (A3-luciferase assay in 293T cells)” value in assay [6] is 17 % of wild type activin-A.

B7: activin-A/C chimera A/C 70-78 (ligand, UniProt P08476 311-379, looked up)
chain: GLECDGKVNICCKKQFFVSFKDIGWNDWIIAPSGYHANYCEGECPSHIAGTSGSSLSFHSTVINHYRMRTAAGTTGGGSCCVPTKLRPMSMLYYDDGQNIIKKDIQNMIVEECGCS
notes: range 1-69 of the mature chain;range 70-78 of the mature chain;range 79 to C-terminus of the mature chain
For B7, in assay [1], the binding result was “binds”.

B8: activin-A S60P (ligand, human, UniProt P08476 311-426, looked up)
chain: GLECDGKVNICCKKQFFVSFKDIGWNDWIIAPSGYHANYCEGECPSHIAGTSGSSLSFHPTVINHYRMRGHSPFANLKSCCVPTKLRPMSMLYYDDGQNIIKKDIQNMIVEECGCS
Regarding B8, the “% Activin Activity (A3-luciferase assay in 293T cells)” value in assay [6] is 17 % of wild type activin-A.

B9: activin-A (M108A) (ligand, human, UniProt P08476 311-426, looked up)
chain: GLECDGKVNICCKKQFFVSFKDIGWNDWIIAPSGYHANYCEGECPSHIAGTSGSSLSFHSTVINHYRMRGHSPFANLKSCCVPTKLRPMSMLYYDDGQNIIKKDIQNAIVEECGCS
notes: mature; Radioiodinated by the chloramine T method for the crosslinking study; also called M108A activin-A; M108A mutant
Take B9: in assay [4], the affinity turned out to be 370 pM. In addition, the binding result in assay [8] is recorded as “no binding”. The “% Activin Activity (A3-luciferase assay in 293T cells)” value in assay [6] is 8 % of wild type activin-A.

B10: activin-A I63P (ligand, human, UniProt P08476 311-426, looked up)
chain: GLECDGKVNICCKKQFFVSFKDIGWNDWIIAPSGYHANYCEGECPSHIAGTSGSSLSFHSTVPNHYRMRGHSPFANLKSCCVPTKLRPMSMLYYDDGQNIIKKDIQNMIVEECGCS
As to B10, the “% Activin Activity (A3-luciferase assay in 293T cells)” value in assay [6] is 19 % of wild type activin-A.

B11: activin-A M108E (ligand, human, UniProt P08476 311-426, looked up)
chain: GLECDGKVNICCKKQFFVSFKDIGWNDWIIAPSGYHANYCEGECPSHIAGTSGSSLSFHSTVINHYRMRGHSPFANLKSCCVPTKLRPMSMLYYDDGQNIIKKDIQNEIVEECGCS
B11: the “% Activin Activity (A3-luciferase assay in 293T cells)” value in assay [6] was 3 % of wild type activin-A.

B12: activin-A/C chimera A/C 64-69 (ligand, UniProt P08476 311-373, looked up)
chain: GLECDGKVNICCKKQFFVSFKDIGWNDWIIAPSGYHANYCEGECPSHIAGTSGSSLSFHSTVINLLKANGHSPFANLKSCCVPTKLRPMSMLYYDDGQNIIKKDIQNMIVEECGCS
notes: range 1-63 of the mature chain;range 64-69 of the mature chain;range 70 to C-terminus of the mature chain
B12: the binding result in assay [1] is “binds”.

B13: activin-A M91E (ligand, human, UniProt P08476 311-426, looked up)
chain: GLECDGKVNICCKKQFFVSFKDIGWNDWIIAPSGYHANYCEGECPSHIAGTSGSSLSFHSTVINHYRMRGHSPFANLKSCCVPTKLRPMSELYYDDGQNIIKKDIQNMIVEECGCS
For the molecule B13, in assay [6], the “% Activin Activity (A3-luciferase assay in 293T cells)” value was 3 % of wild type activin-A.

B14: activin-A/C chimera A/C 54-63 (ligand, UniProt P08476 311-363, looked up)
chain: GLECDGKVNICCKKQFFVSFKDIGWNDWIIAPSGYHANYCEGECPSHIAGTSGIAASFHTAVLNHYRMRGHSPFANLKSCCVPTKLRPMSMLYYDDGQNIIKKDIQNMIVEECGCS
notes: range 1-53 of the mature chain;range 54-63 of the mature chain;range 64 to C-terminus of the mature chain
In the case of B14, in assay [1], the binding result is listed as “binds”.

B15: activin-A/C chimera A/C 46-53 (ligand, UniProt P08476 311-355, looked up)
chain: GLECDGKVNICCKKQFFVSFKDIGWNDWIIAPSGYHANYCEGECPLHIAGMPGSSLSFHSTVINHYRMRGHSPFANLKSCCVPTKLRPMSMLYYDDGQNIIKKDIQNMIVEECGCS
notes: range 1-45 of the mature chain;range 46-53 of the mature chain;range 54 to C-terminus of the mature chain
Regarding B15, the binding result in assay [1] is listed as “binds”.
